Test results as given in publication PMC9129080, “Control of fruit softening and Ascorbic acid accumulation by manipulation of SlIMP3 in tomato” (Plant Biotechnology Journal, 2022).

Key:
[1] = substrate: O=P(O)(O)OC1O[C@@H](CO)[C@@H](O)[C@@H](O)[C@@H]1O; assay: phosphate release, malachite green; assay type: biochemical, Solanum lycopersicum; conditions: 3.5 mM MgCl2, 50 mM Tris-Cl pH 7.0, 25 °C
[2] = substrate: O=P(O)(O)O[C@@H]1[C@@H](O)[C@H](O)[C@@H](O)[C@H](O)[C@@H]1O; assay: phosphate release, malachite green; assay type: biochemical, Solanum lycopersicum; conditions: 3.5 mM MgCl2, 50 mM Tris-Cl pH 7.0, 25 °C

B1: SlIMP3 (Solanum lycopersicum) (protein)
chain: MAQNGSVEQFLDVAVEAAKKAGEIIREGFYKTKHVEHKGMVDLVTETDKACEDFIFNHLKQRFPSHKFIGEETTAACGNFELTDEPTWIVDPLDGTTNFVHGFPFVCVSIGLTIEKKPTVGVVYNPIIDELFTGIDGKGAFLNGKPIKVSSQSELVKALLATEAGTNRDKLVVDATTGRINSLLFKVRSLRMCGSCALNLCGVACGRLDLFYELEFGGPWDVAGGAVIVKEAGGFVFDPSGSEFDLTARRVAATNAHLKDAFIKALNE
notes: tag removal not mentioned
Question: B1 was tested. Which Km [1] did it give?
Answer: The Km was 290 µM.

Question: And the Km [2]?
Answer: Its Km is 280 µM.
